# What was measured:
# [1] = Stability in CWE with protease inhibitor cocktail (PIC), capillary zone electrophoresis; format: in vitro ADME, human; details: 1 mg/ml in PBS mixed 1:1 with CWE (1 mg/ml protein, pool of 5 donors) in PBS containing PIC (final 1:140 v/v), 37°C, CZE, ratio to imidazole, 0 h = 100%
# Outline: (§1)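 Peptides or cytokines (1 mg/ml stock) mixed 1:1 with PBS or pooled chronic-wound extract (1 mg/ml protein, three pools of five donors), ±protease inhibitor cocktail, at 37 °C for up to 96 h. Analyzed by capillary zone electrophoresis (pH 2.5 phosphate, 200 nm), with peak ratio to imidazole standard relative to 0 h as % intact.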
# [2] = Stability in PBS, capillary zone electrophoresis; format: physicochemical; details: 1 mg/ml in PBS mixed 1:1 with PBS, 37°C, 96 h, CZE, UV 200 nm, ratio to imidazole internal standard, 0 h = 100%
# Experimental: To determine the stability of the different peptides in CWE, histatins and cytokines were dissolved in PBS at 1 mg/ml. Histatins and cytokines were incubated in a 1:1 ratio with (i) PBS, (ii) CWE in PBS, or (iii) CWE in PBS containing PIC, in a total volume of 25 μl. Imidazole (Sigma-Aldrich) was added as an internal standard, with a final concentration of 100 μg/ml. The mixtures were incubated at 37°C, and samples were taken at 0, 24, 48, 72 and 96 h. For histatins containing mixtures, additional samples were taken after 2, 4, 8 and 16 h of incubation.
# The samples were analyzed with a BioFocus 2000 capillary zone electrophoresis system (Bio-Rad Laboratories, Hercules, CA, USA) equipped with an uncoated fused-silica capillary of internal diameter 50 μm and a length of 24 cm. Samples were loaded by pressure injection (5 psi/sec). Separation was performed at 10 kV (cathode at the detector side) at 20°C using 0.1 M phosphate buffer (pH 2.5) as electrolyte and monitored continuously at 200 nm. Peaks were quantified with the BioFocus Integrator software. In order to quantify the percentage of intact peptides remaining after incubation with CWE, the ratios of histatins, rhIL-6 or rhCXCL8 to internal standard was set at 100% at 0h, and the ratios at the other incubation time points were related to this.
# [3] = Stability in chronic wound extracts (CWE), capillary zone electrophoresis; format: in vitro ADME, human; details: 37°C, CZE, 0 h = 100%; for Percentage intact, CWE 24h / Percentage intact, CWE 48h / Percentage intact, CWE 72h / Percentage intact, CWE 96h: 1 mg/ml in PBS mixed 1:1 with CWE (1 mg/ml protein, pool of 5 donors) in PBS, UV 200 nm, ratio to imidazole
# Outline: as §1
substance,measurement,setting,value
"CXCL8 CS: rhCXCL8 from Cell Systems, Cat nr. CS-C1069, CXCL8 (1–77)","Percentage intact, CWE + PIC 24h",[1]; experiment 1 of 3,104.747%
same,"Percentage intact, CWE + PIC 24h",[1]; experiment 2 of 3,99.4146%
same,"Percentage intact, CWE + PIC 24h",[1]; experiment 3 of 3,99.4369%
same,"Percentage intact, CWE + PIC 48h",[1]; experiment 1 of 3,98.6704%
same,"Percentage intact, CWE + PIC 48h",[1]; experiment 2 of 3,94.4506%
same,"Percentage intact, CWE + PIC 48h",[1]; experiment 3 of 3,91.0713%
same,"Percentage intact, CWE + PIC 72h",[1]; experiment 1 of 3,96.1244%
same,"Percentage intact, CWE + PIC 72h",[1]; experiment 2 of 3,88.7106%
same,"Percentage intact, CWE + PIC 72h",[1]; experiment 3 of 3,87.6839%
same,"Percentage intact, CWE + PIC 96h",[1]; experiment 1 of 3,87.7388%
same,"Percentage intact, CWE + PIC 96h",[1]; experiment 2 of 3,86.0248%
same,"Percentage intact, CWE + PIC 96h",[1]; experiment 3 of 3,85.3459%
same,"Percentage intact, PBS 96h",[2]; experiment 1 of 3,91.5892%
same,"Percentage intact, PBS 96h",[2]; experiment 2 of 3,91.4833%
same,"Percentage intact, PBS 96h",[2]; experiment 3 of 3,87.1812%
same,"Percentage intact, CWE 24h",[3]; experiment 1 of 3,88.8666%
same,"Percentage intact, CWE 24h",[3]; experiment 2 of 3,92.8064%
same,"Percentage intact, CWE 24h",[3]; experiment 3 of 3,96.6818%
same,"Percentage intact, CWE 48h",[3]; experiment 1 of 3,87.3559%
same,"Percentage intact, CWE 48h",[3]; experiment 2 of 3,86.1407%
same,"Percentage intact, CWE 48h",[3]; experiment 3 of 3,89.0325%
same,"Percentage intact, CWE 72h",[3]; experiment 1 of 3,83.3251%
same,"Percentage intact, CWE 72h",[3]; experiment 2 of 3,83.9414%
same,"Percentage intact, CWE 72h",[3]; experiment 3 of 3,84.6704%
same,"Percentage intact, CWE 96h","[3]; 96 h, experiment 1 of 3",78.0414%
same,"Percentage intact, CWE 96h","[3]; 96 h, experiment 2 of 3",80.0263%
same,"Percentage intact, CWE 96h","[3]; 96 h, experiment 3 of 3",80.2041%
same,Starting material remaining intact after 96 h in CWE,"[3]; 1 mg/ml in PBS mixed 1:1 with CWE (1 mg/ml protein, pools of 5 donors), 96 h, mean of 3 independent experiments",79%

# — PMC4809600, “The Influence of Chronic Wound Extracts on Inflammatory Cytokine and Histatin Stability” (PLoS ONE, 2016)
